Experimental data reported in patent US20080311122A1, “Antagonists of Hmgb1 and/or Rage and Methods of Use Thereof” (Medimmune, LLC, priority 2005, published 2008).
Entries after “also recorded” stand apart in the source; their conditions may differ.

T1: HMG2 (Bos taurus, UniProt P40673)
T1 construct: from tissue; host or cells: calf thymus (as read from the sentence)
T1 sequence (P40673 1-209): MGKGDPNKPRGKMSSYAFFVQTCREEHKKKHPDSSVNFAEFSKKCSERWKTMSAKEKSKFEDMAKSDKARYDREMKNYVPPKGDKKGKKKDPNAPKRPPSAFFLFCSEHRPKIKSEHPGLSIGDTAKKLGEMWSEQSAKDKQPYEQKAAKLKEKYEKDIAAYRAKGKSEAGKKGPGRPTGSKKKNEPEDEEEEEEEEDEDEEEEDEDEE

T2: recombinant HMG1 binding to RAGE-Fc (Homo sapiens, UniProt P09429)
T2 construct: made in house; host or cells: E. coli (HMG1)
T2 sequence (P09429 1-215): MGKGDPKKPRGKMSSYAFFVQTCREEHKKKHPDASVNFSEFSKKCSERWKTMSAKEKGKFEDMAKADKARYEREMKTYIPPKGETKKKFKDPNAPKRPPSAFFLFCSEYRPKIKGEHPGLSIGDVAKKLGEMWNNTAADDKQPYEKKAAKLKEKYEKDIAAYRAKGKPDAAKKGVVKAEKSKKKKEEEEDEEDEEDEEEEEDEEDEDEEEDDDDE

B1: G20: human anti-HMG1 antibody; VL/VH aa SEQ ID NO: 46/48 (antibody, listed as Homo sapiens, V domains shown)
VH: EVQLLESGGGLVQPGGSLRLSCAASGFTFSWYDMFWVRQAPGKGLEWVSWISPSGGYTKYADSVKGRFTISRDNSKNTLYLQMNSLRAEDTAMYYCARSGLDYYDSSGYLDAFDIWGQGTMVTVSS
VL: AQDIQMTQSPSSVSASVGDRVTITCRASQDVSIWLAWYQQKPGKAPKLLIFGASRLQSGVPSRFSGSRSGADFTLTIDSVQPEDFASYYCQQADSFPLTFGGGTKVEIK
B2: S12: human anti-HMG1 antibody; VL/VH aa SEQ ID NO: 62/64 (antibody, listed as Homo sapiens, V domains shown)
VH: EVQLLESGGGLVQPGGSLRLSCAASGFTFSKYIMHWVRQAPGKGLEWVSGIVPSGGLTEYADSVKGRFTISRDNSKNTLYLQMNSLRAEDTATYYCAKEIFGQFDYWGQGTLVTVSS
VL: AQSALTQPPSVSAAPRQRVTISCSGSTSNIGNNAVTWYQYFPGKAPKLLIYSDNQRPSGVPDRFSGSKSGTSASLAITGLQAEDEADYYCQSYDRGLSVVFGGGTKLTVL
B3: G9: human anti-HMG1 antibody; VL/VH aa SEQ ID NO: 34/36 (antibody, listed as Homo sapiens, V domains shown)
VH: EVQLLESGGGLVQPGGSLRLSCAASGFTFSSYDMFWVRQAPGKGLEWVSRISPSGGYTYYADSVKGRFTISRDNSKNTLYLQMNSLRAEDTAVYYCARLRYFDSRGYAFDIWGQGTMVTVSS
VL: AQDIQMTQSPGTLSLSPGERATLSCRASQSVRSSYLAWYQQKPGQAPRLLIYGASTRATGIPDRFSGSGSGTDFTLTISRLEPEDFAVYYCQQYGTSRWTFGQGTKVEIK
B4: S10: human anti-HMG1 antibody; VL/VH aa SEQ ID NO: 58/60 (antibody, listed as Homo sapiens, V domains shown)
VH: EVQLLESGGGLVQPGGSLRLSCAASGFTFSWYDMWWVRQAPGKGLEWVSWIVPSGGITAYADSVKGRFTISRDNSKNTLYLQMNSLRAEDTATYYCARGNYGPSPFDYWGQGTLVTVSS
VL: AQDIQMTQSPGTLSLSPGERATLSCRATQSVRKNFLAWYQQKPGQAPRLLIYDASSRATGIPDRFSGSGSGTDFTLTISRLEPEDFAVYYCQQYGNSPIIFGQGTRLEIK
B5: E11: human anti-HMG1 antibody, recognizes HMG1 A-Box; VL/VH aa SEQ ID NO: 24/26 (antibody, listed as Homo sapiens, V domains shown)
VH: EVQLLESGGGLVQPGGSLRLSCAASGFTFSRYQMNWVRQAPGKGLEWVSSISPSGGHTHYADSVKGRFTISRDNSKNTLYLQMNSLRAEDTAVYYCAKDGRQGKISTVDHWGQGTLVTVSS
VL: AQDIQMTQSPGTLSLSPGERATLSCRASQSVRSNFLAWYQQKPGQAPRLLIYGASRRASGIPDRFSGSGFGADFTLSISRLEPEDFAVYYCQQYGSSPNTFGQGSRVEIK
B6: S16: human anti-HMG1 antibody, ATCC PTA-6259; VL/VH aa SEQ ID NO: 13/15 (antibody, listed as Homo sapiens, V domains shown)
VH: EVQLLESGGGLVQPGGSLRLSCAASGFTFSWYSMLWVRQAPGKGLEWVSYISPSGGFTNYADSVKGRFTISRDNSKNTLYLQMNSLRAEDTAVYYCARWDYNSGWYYDHWGQGTLVTVSS
VL: AQDIQMTQSPDTLSLSPGERATLSCRASQSVNSRNLAWYQQKPGQAPRLLIYGASTRATGIPDRFSGSVSGTEFTLTISSLQPDDFATYYCQQYNSYFTFGQGTKLEIK

Key:
[1] = Isoelectric focusing gel electrophoresis; assay type: physicochemical
Description: Isoelectric Focusing Gel Electrophoresis: Isoelectric points were determined using a Pharmacia Biotech Multiphor 2 electrophoresis system with a multi temp 3 refrigerated bath recirculation unit and an EPS 3501 XL power supply. Pre-cast ampholine gels (Amersham Biosciences, pI range 2.5-10) were loaded with 5 μg of protein. Broad range pI marker standards (Amersham, pI range 3-10, 8 μL) were used to determine relative pI for the Mabs. Electrophoresis was performed at 1500 V, 50 mA for 105 minutes. The gel was fixed using a Sigma fixing solution (5×) diluted with purified water to 1×. Staining was performed overnight at room temperature using Simply Blue stain (Invitrogen). Destaining was carried out with a solution that consisted of 25% ethanol, 8% acetic acid and 67% purified water. Isoelectric points were determined using a Bio-Rad Densitometer relative to calibration curves of the standards.

HMG2 = biological target: T1, HMG2; test: Binding to HMG1 vs. HMG2 ELISA; design: species or system calf; conditions: immobilized antigen
Description: Binding to HMG1 vs. HMG2: Ultra high-binding ELISA plates (ThermoLab systems, #3855) were coated with either 5 ug/mL of Calf thymus HMGB1 or HMBG2 diluted in 10 mM Phosphate buffered saline (PBS), pH 7.2 and incubate overnight at 4 degrees. The plates were washed twice with Ca and Mg free PBS and 100 microliters of anti-HMGB1 antibody diluted in 10 mM PBS, pH 7.2+1% bovine serum albumin (BSA) to a final concentration of 10 ug/mL was added to each well and the plates were incubated 1 hour at room temperature. The wells were washed three times with 100 μl of PBS, pH 7.2. HRP labeled goat-anti-human IgG Kappa-chain (KPL, #14-10-10) and goat-anti-human IgG Lambda-chain (KPL, #14-10-11) were diluted in 10 mM PBS+1% BSA 1:1000 and 100 μl were added to each well and incubated for 1 hour at room temperature. The wells were then washed three times with 100 μl of PBS, pH 7.2. OPD substrate (Pierce chemical company, #34006) was prepared following the manufacturers instructions and 100 μl of prepared substrate was added to each well and the plates incubated at room temperature in the dark for 20-30 minutes. The reaction was stopped with the addition of 100 μl of 2M H2SO4, and the plates read on a plate reader at a wavelength of 490 nm.

[2] = biological target: T2, recombinant HMG1 binding to RAGE-Fc; test: HMG1 binding to RAGE-Ig by ELISA; conditions: at the concentrations tested
Description: HMG1 binding to RAGE-Ig by ELISA: 50 μl/well of RAGE-Fc fusion protein at 5 μg/ml in PBS was added to each well of an ELISA plate and incubated overnight at 4° C. The plate was then blocked with 200 μl of 5% milk at 37° C. for 1 hr and washed 3× with PBS/Tween. 50 μl/well of diluted HMGB1 solution. For dose curves, HMGB1 concentrations started at 4 ug/ml in PBS. For antibody blocking the HMGB1 was preincubated in another plate with human anti-HMG1 antibodies or buffer, then transferred to the RAGE-coated plate. The plates were then incubated at room temperature for 2 hours and washed 3×. To detect any HMG1 bound to the immobilized RAGE-Fc a mixture of biotinylated mouse anti-HMG1 mAbs (10D4, 4H11, 3E10 and 5C12) each at 1 ug/ml, total Ab: 4 ug/ml, were added to each well and the plate was incubated for 1 hour at room temperature. The plate was then washed and Strepavidin-HPR was added to each well and incubated 15 min. The plate was then washed 3× and blotted dry. 100 μl of TMB developing agent was added and the plate read at 650 nm. Values were calculated as percent of inhibition with HMG1 alone equal to 0% inhibition. The data in FIG. 9 and summarized in Table 1 represent the average of two separate experiments.

[3] = test system: HMG1 (recombinant, native; immobilized, soluble); test: Direct and sandwich (capture) ELISA comparing forms of HMG1; assay type: binding; conditions: for binding to immobilized versus soluble HMG1: two ELISA formats, rHMG1; for binding to recombinant HMG1 versus native HMG1: capture ELISA
Description: Direct ELISA (immobilized HMG1): Individual wells of a 96-well immunoplate (EIA/RIA plate, High binding, Costar) were coated with HMGB-1 at 5 μg/ml in PBS at 4° C. overnight. The plate was then blocked with 4% milk powder dissolved in PBS at 37° C. for 1 hour. The blocking solution was removed and replaced with human anti-HMG1 antibodies at various concentrations (see FIG. 4A). The plate was then washed (ELX-405 Plate washer, BIO-TEK) and secondary antibody (anti-human IgG-HRP, PIERCE) was added at a final concentration of 1:125,000 at 37° C. for 1 hour. HRP activity was detected with Sureblue HRP substrate (KPL). Plates were read at 450 nm using a Kinetic Microplate Reader (Molecular Devices).
Sandwich ELISA (soluble HMG1): Immunoplates (EIA/RIA plate, High binding, Costar) were coated with anti human IgG Fc at 10 μg/ml in PBS (pH 7.2) and incubated at 4° C. overnight. The coating reagent was removed and the plates were rinsed briefly with PBS. The plates were then blocked with 4% milk for 1 hour at 37° C. and rinsed with PBS. The anti-HMG1 antibodies were diluted in 4% milk. For serial dilutions, the antibodies were used at a starting concentration of 20 μg/ml. The diluted anti-HMG1 antibodies were then added into plate and incubated for 1 hr at 37° C. The plate was then washed 10 times with PBST (PBS/0.1% tween 20) and incubate with antigen (HMGB1, 2 μg/ml; or 0.7 μg/ml for native HMGB1) in 4% milk and incubated at 37° C. for 1 h. The plate was then wash 10 times and incubated with mouse anti-HMGB1, 1 μg/ml in 4% milk at 37° C. for 1 h. The plate was washed 10 times and incubated with anti-mouse IgG-HRP at 1:1000 at 37° C. for 1 h. The plate was then washed and developed. HRP activity was detected with Sureblue HRP substrate (KPL). Plates were read at 450 nm using a Kinetic Microplate Reader (Molecular Devices).

| Molecule | PI [1] | relative binding to HMG1 and HMG2 (HMG2) | block of recombinant HMG1 binding to RAGE [2] | binding to immobilized versus soluble HMG1 [3] | binding to recombinant HMG1 versus native HMG1 [3] |
| --- | --- | --- | --- | --- | --- |
| B1 | 7.8 | specific for HMG1 | do not at the concentrations tested | bind better to soluble rHMG1 |  |
| B2 | 8.73 | some binding to both HMG1 and HMG2 | do not at the concentrations tested | bound slightly better to immobilized rHMG1 |  |
| B3 | 9.01 | specific for HMG1 | did not inhibit RAGE binding; also recorded: do not at the concentrations tested | little difference in binding to immobilized or soluble HMG1 |  |
| B4 | 8.76 | specific for HMG1 | significant ability to block the binding of HMG1 to RAGE | bound slightly better to immobilized rHMG1 | better binding to rHMG1; also recorded: discriminating between recombinant and the various native forms; also recorded: bind better to recombinant HMG1 than to native nuclear HMG1 |
| B5 | 8.92 | some binding to HMG2; also recorded: bind better to HMG2 than to HMG1; also recorded: higher binding affinity for HMG2 |  | bind better to soluble rHMG1; also recorded: higher affinity for soluble HMG1 |  |
| B6 | 8.11 | some binding to both HMG1 and HMG2 | significant ability to block the binding of HMG1 to RAGE | bound slightly better to immobilized rHMG1 | binds both recombinant and native HMG1; also recorded: binding all forms of HMG1; also recorded: bind both forms of HMG1 |
